Measurements published in article PMC4797271, “The quorum-sensing regulator ComA from Bacillus subtilis activates transcription using topologically distinct DNA motifs”.

Biological target: T1, ComA (Bacillus subtilis, UniProt P14204 1-214)
T1 sequence: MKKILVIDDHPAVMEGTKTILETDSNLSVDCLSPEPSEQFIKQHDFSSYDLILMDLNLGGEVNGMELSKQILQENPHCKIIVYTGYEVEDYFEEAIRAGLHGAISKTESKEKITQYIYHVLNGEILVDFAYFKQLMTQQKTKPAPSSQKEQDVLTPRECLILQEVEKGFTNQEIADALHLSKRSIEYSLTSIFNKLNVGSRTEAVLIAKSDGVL
Test: EMSA; multiple complexes; EMSA: 10 mM HEPES pH 7.6, 2 mM MgCl2, 0.1 mM EDTA, 200 mM KCl, 5 mM DTT, 10% glycerol; 10 ng DNA in 15 ul, 20 min, room temperature
Conditions: protein: recombinant; tags: N-terminal His6 (from expression primer); chain copies: 2; label: 5' biotin on strand 1; blunt

B1: Ppel DR cluster (DR1-DR3) (dsDNA)
DNA 1: CGGCCTTTTGGTTTTTTTGCGGTCTTTGCGGTGGGATTTTGCAGAAT
DNA 2: ATTCTGCAAAATCCCACCGCAAAGACCGCAAAAAAACCAAAAGGCCG
binding result: binds
